The values below come from patent US7115262.

For experiment [1], the target named is HIV-1 Env (LAV) (HIV-1 (LAV)) (UniProt P03377). The experiment can be described thus: cell-based or functional assay.
Experiment [2] has as its target wildtype (WT) SF162 Env (HIV-1 (SF162)) (UniProt P19550). The experiment can be described thus: cell-based or functional assay.

In experiment [1], MAb 17b (antibody) gave a % control, Standard Assay (CXCR4 and CD4 on target cells), 17b at 0.1 µg/ml of 93.4 % control; a % control, Standard Assay (CXCR4 and CD4 on target cells), 17b at 0.5 µg/ml of 104 % control; a % control, Standard Assay (CXCR4 and CD4 on target cells), 17b at 1 µg/ml of 94.1 % control; a % control, Standard Assay (CXCR4 and CD4 on target cells), 17b at 5 µg/ml of 119 % control. Further, in experiment [1], the % control, sCD4 Assay (CXCR4 alone on target cells, 200 nM soluble CD4 added), 17b at 0.1 µg/ml came to 114 % control; the % control, sCD4 Assay (CXCR4 alone on target cells, 200 nM soluble CD4 added), 17b at 0.5 µg/ml was determined as 39.2 % control; the % control, sCD4 Assay (CXCR4 alone on target cells, 200 nM soluble CD4 added), 17b at 1 µg/ml worked out at 14.1 % control; the % control, sCD4 Assay (CXCR4 alone on target cells, 200 nM soluble CD4 added), 17b at 5 µg/ml came to 0 % control. Moreover, in experiment [1], the β-gal, Standard Assay (CXCR4 and CD4 on target cells), 17b at 0.1 µg/ml was found to be 39.5; the β-gal, Standard Assay (CXCR4 and CD4 on target cells), 17b at 0.5 µg/ml was 43.9; the β-gal, Standard Assay (CXCR4 and CD4 on target cells), 17b at 1 µg/ml was found to be 39.8; the β-gal, Standard Assay (CXCR4 and CD4 on target cells), 17b at 5 µg/ml amounted to 50.5. Further, in experiment [1], the β-gal, sCD4 Assay (CXCR4 alone on target cells, 200 nM soluble CD4 added), 17b at 0.1 µg/ml stood at 13.6; the β-gal, sCD4 Assay (CXCR4 alone on target cells, 200 nM soluble CD4 added), 17b at 0.5 µg/ml came to 4.66; the β-gal, sCD4 Assay (CXCR4 alone on target cells, 200 nM soluble CD4 added), 17b at 1 µg/ml was 1.68; the β-gal, sCD4 Assay (CXCR4 alone on target cells, 200 nM soluble CD4 added), 17b at 5 µg/ml was 0.

On to “soluble CD4 (from UniProt P01730 26-208) (receptor)”, for which, in experiment [2], the β-gal activity, vaccinia-based reporter gene cell fusion assay, +sCD4 (100 nM), CCR5 target cells without CD4; WT Env duplicate came to 6.6 and the β-gal activity, vaccinia-based reporter gene cell fusion assay, +sCD4 (100 nM), CCR5 target cells without CD4; WT Env mean was determined as 5.9.
